Test results reported in patent US20240117018A1.

Tests used:
Assay in all cases: cell-based or functional assay
[1] = target: HIV-1 Env of pseudovirus Q842.d12 (HIV-1)
[2] = target: HIV-1 Env of pseudovirus 1054_07_TC4_1499 (HIV-1)
[3] = target: HIV-1 Env of pseudovirus 1394C9G1(Rev-) (HIV-1)
[4] = target: HIV-1 Env of pseudovirus AC10.0.29 (HIV-1)
[5] = target: HIV-1 Env of pseudovirus CNE58 (HIV-1)
[6] = target: HIV-1 Env of pseudovirus ZM109F.PB4 (HIV-1)
[7] = target: HIV-1 Env of pseudovirus ZM197M.PB7 (HIV-1)
[8] = target: HIV-1 Env of pseudovirus ZM214M.PL15 (HIV-1)
[9] = target: HIV-1 Env of pseudovirus HIV-16055-2.3 (HIV-1)
[10] = target: HIV-1 Env of pseudovirus Q769.d22 (HIV-1)
[11] = target: HIV-1 Env of pseudovirus ZM233M.PB6 (HIV-1)
[12] = target: HIV-1 Env of pseudovirus Ce0393_C3 (HIV-1)
[13] = target: HIV-1 Env of pseudovirus WEAU_d15_410_787 (HIV-1)
[14] = target: HIV-1 Env of pseudovirus Du172.17 (HIV-1)
[15] = target: HIV-1 Env of pseudovirus Du422.1 (HIV-1)
[16] = target: HIV-1 Env of pseudovirus CNE52 (HIV-1)
[17] = target: HIV-1 Env of pseudovirus Ce2010_F5 (HIV-1)
[18] = target: HIV-1 Env of pseudovirus 62357_14_D3_4589 (HIV-1)
[19] = target: HIV-1 Env of pseudovirus HIV-0013095-2.11 (HIV-1)
[20] = target: HIV-1 Env of pseudovirus ZM135M.PL10a (HIV-1)
[21] = target: HIV-1 Env of pseudovirus CNE53 (HIV-1)
[22] = target: HIV-1 Env of pseudovirus ZM53M.PB12 (HIV-1)
[23] = target: HIV-1 Env of pseudovirus ZM247v1(Rev-) (HIV-1)
[24] = target: HIV-1 Env of pseudovirus CNE20 (HIV-1)
[25] = target: HIV-1 Env of pseudovirus CAAN5342.A2 (HIV-1)
[26] = target: HIV-1 Env of pseudovirus Ce1176_A3 (HIV-1)
[27] = target: HIV-1 Env of pseudovirus 1012_11_TC21_3257 (HIV-1)
[28] = target: HIV-1 Env of pseudovirus Ce2060_G9 (HIV-1)
[29] = target: HIV-1 Env of pseudovirus T257-31 (HIV-1)
[30] = target: HIV-1 Env of pseudovirus TRO.11 (HIV-1)
[31] = target: HIV-1 Env of pseudovirus X1254_c3 (HIV-1)
[32] = target: HIV-1 Env of pseudovirus 231965.c01 (HIV-1)
[33] = target: HIV-1 Env of pseudovirus X1632_S2_B10 (HIV-1)
[34] = target: HIV-1 Env of pseudovirus BJOX015000.11.5 (HIV-1)
[35] = target: HIV-1 Env of pseudovirus BJOX009000.02.4 (HIV-1)
[36] = target: HIV-1 Env of pseudovirus P1981_C5_3 (HIV-1)
[37] = target: HIV-1 Env of pseudovirus BJOX028000.10.3 (HIV-1)

3BNC117 (antibody)
IC50 [1]: < 0.01 µg/mL | IC80 [1]: 0.01 µg/mL | IC50 [2]: 0.07 µg/mL | IC80 [2]: 0.49 µg/mL | IC50 [3]: > 50 µg/mL | IC80 [3]: > 50 µg/mL | IC50 [4]: 13.8 µg/mL | IC80 [4]: > 50 µg/mL | IC50 [5]: 0.25 µg/mL | IC80 [5]: 2.03 µg/mL | IC50 [6]: 0.14 µg/mL | IC80 [6]: 0.88 µg/mL | IC50 [7]: 0.22 µg/mL | IC80 [7]: 1.03 µg/mL | IC50 [8]: 0.06 µg/mL | IC80 [8]: 0.52 µg/mL | IC50 [9]: 5.6 µg/mL | IC80 [9]: > 50 µg/mL | IC50 [10]: 0.01 µg/mL | IC80 [10]: 0.04 µg/mL | IC50 [11]: 0.13 µg/mL | IC80 [11]: 0.85 µg/mL | IC50 [12]: 0.2 µg/mL | IC80 [12]: 0.67 µg/mL | IC50 [13]: 0.05 µg/mL | IC80 [13]: 0.19 µg/mL | IC50 [14]: 1.19 µg/mL | IC80 [14]: 8.9 µg/mL | IC50 [15]: > 50 µg/mL | IC80 [15]: > 50 µg/mL | IC50 [16]: 0.02 µg/mL | IC80 [16]: 0.06 µg/mL | IC50 [17]: 0.05 µg/mL | IC80 [17]: 0.21 µg/mL | IC50 [18]: 0.06 µg/mL | IC80 [18]: 0.26 µg/mL | IC50 [19]: 0.33 µg/mL | IC80 [19]: 2.53 µg/mL | IC50 [20]: 0.03 µg/mL | IC80 [20]: 0.13 µg/mL | IC50 [21]: 0.08 µg/mL | IC80 [21]: 0.99 µg/mL | IC50 [22]: 0.21 µg/mL | IC80 [22]: 0.85 µg/mL | IC50 [23]: > 50 µg/mL | IC80 [23]: > 50 µg/mL | IC50 [24]: > 50 µg/mL | IC80 [24]: > 50 µg/mL | IC50 [25]: 0.42 µg/mL | IC80 [25]: 1.51 µg/mL | IC50 [26]: 0.22 µg/mL | IC80 [26]: 0.75 µg/mL | IC50 [27]: 0.02 µg/mL | IC80 [27]: 0.07 µg/mL | IC50 [28]: 0.24 µg/mL | IC80 [28]: 0.81 µg/mL | IC50 [29]: 0.06 µg/mL | IC80 [29]: 0.37 µg/mL | IC50 [30]: < 0.09 µg/mL | IC80 [30]: < 0.09 µg/mL

N49P19 (antibody)
neutralization IC50 [31]: > 50 µg/mL | neutralization IC80 [31]: > 50 µg/mL | neutralization MPI [31]: 48 | neutralization IC50 [32]: > 50 µg/mL | neutralization IC80 [32]: > 50 µg/mL | neutralization MPI [32]: 22 | neutralization IC50 [33]: > 50 µg/mL | neutralization IC80 [33]: > 50 µg/mL | neutralization MPI [33]: 14 | neutralization IC50 [34]: 0.756 µg/mL | neutralization IC80 [34]: 3.17 µg/mL | neutralization MPI [34]: 99 | neutralization IC50 [35]: 3.66 µg/mL | neutralization IC80 [35]: 25.6 µg/mL | neutralization MPI [35]: 87 | neutralization IC50 [36]: 20.2 µg/mL | neutralization IC80 [36]: > 50 µg/mL | neutralization MPI [36]: 68 | neutralization IC50 [37]: 7 µg/mL | neutralization IC80 [37]: > 50 µg/mL | neutralization MPI [37]: 80 | neutralization IC50 [29]: 0.661 µg/mL | neutralization IC80 [29]: 3 µg/mL | neutralization MPI [29]: 100
